Results from patent US20050202010A1, “Method of treatment and bioassay involving macrophage migration inhibitory factor (MIF) as cardiac-derived myocardial depressant factor” (priority 2003, published 2005).
Several values for one entry are separate records, joined by “and”; a condition that tells them apart may be missing. Equal entries are not always repeated.

Columns and labels:
[1] = system: spontaneously beating normal mouse hearts (C57BL/6J); assay: Langendorff preparation, hearts perfused with rMIF (C57BL/6J); settings: C57BL/6J hearts, 20 ng/ml rMIF, 1.5 ml/m
Protocol: (§1) Determination of cardiac function in response to rMIF. C57BL/6J and C3H/HeJ mice were used in the Langendorff assays. Briefly, 200 U heparin sulfate was given i.p., the mice sacrificed 20 m later, and the heart immediately removed and placed on ice in Krebs-Hanseleit Buffer ([…], 118 mM NaCl, 4.7 mM KCL, 1.2 mM KH2PO4, 1.2 mM MgSO4, 2.5 mM CaCl2, 11.1 mM glucose, pH 7.4, which was prepared fresh with demineralized, deionized water and bubbled with 95% O2 and 5% CO2 (PO2 590 mmHg, pCO2 38 mmHg)). The aorta was cannulated with PE50 tubing, the heart perfused in a retrograde manner through the aortic root with prefiltered, oxygenated Krebs-Hanseleit Buffer at a constant flow rate of 1.5 ml/m (T 37° C.) and a recirculating volume of 100 ml. The heart was placed in a water-jacketed chamber to maintain constant temperature and humidity. PE60 intratnedic polyethylene tubing was connected to a Statham pressure transducer inserted into the left ventricle (LV) to measure LV pressure. Temperature was monitored using a 27 G thertnistor needle inserted into the LV muscle. […] Following stabilization, LV pressure and its first derivative (dP/dt), heart rate, and coronary perfusion were measured simultaneously with a multichannel Grass 7D polygraph (Grass Instruments, Quincy, M A). Cardiac function for all hearts was determined by plotting peak systolic LV pressure and ±dP/dt,Ia, values against changes in coronary flow rate.
(§2) MIF induces systolic and diastolic cardiac dysfunction. […] Responses to MIF were determined in hearts from both C57BL/6J mice, and C3H/HeJ mice. C3H/HeJ mice are resistant to endotoxin (41-43), therefore controlling for the possibility that any depression observed might be due to trace endotoxin in the perfusate. Table 2 illustrates the responses of both mouse strains to retrograde aortic perfusion at 1.5 ml/m with control perfusate or perfusate containing 20 ng/ml recombinant MIF. Perfusion with MIF led to a significant decrease in LVP, +dP/dtmax, and −dP/dt max in both mouse strains. FIG. 4 illustrates the effect of MIF over a range of coronary flow rates. […]

[2] = system: spontaneously beating normal mouse hearts (endotoxin resistant C3H/HeJ); assay: Langendorff preparation, hearts perfused with rMIF (C3H/HeJ); settings: 20 ng/ml rMIF, 1.5 ml/m
Protocol: as §1, §2

isolated TNFR−/− hearts = assay: Langendorff perfusion with rMIF, TNFR−/− hearts; parameters: species or system mouse
Protocol: (§3) Ex vivo cardiac function determination by Langendorff Mouse heart function was determined using the Langendorff assay procedure. Briefly, 200 Units heparin sulfate were injected intraperitoneally and the mice were sacrificed 20 minutes later. The heart was immediately removed and placed on ice in Krebs-Henseleit Buffer ([…], 118 mM NaCl, 4.7 mM KCL, 1.2 mM KH2PO4, 1.2 mM MgSO4, 2.5 mM CaCl2, 11.1 mM glucose, pH 7.4, which was prepared fresh with demineralized, deionized water and bubbled with 95% O2 and 5% CO2(pO2 590 mmHg, pCO2 38 mmHg)). The aorta was cannulated with PE50 tubing, the heart perfused in a retrograde manner through the aortic root with pre-filtered, oxygenated Krebs-Henseleit Buffer at a constant flow rate of 1.5 ml/minute (constant temperature of 37° C., 100 ml recirculating volume). The heart was placed in a water-jacketed chamber to maintain constant temperature and humidity. Intramedic polyethylene tubing (PE60), connected to a Statham pressure transducer, was inserted into the left ventricle (LV) to measure LV pressure. Temperature was monitored using a 27 gauge thermistor needle inserted into the LV muscle. […] Following stabilization, LV pressure and its first derivative (dP/dt), heart rate, and coronary perfusion were measured simultaneously with a multi-channel Grass 7D polygraph (Grass Instruments, Quincy, Mass.). Ventricular performance as a function of coronary perfusion was determined for all hearts by plotting peak systolic LV pressure and ±dP/dtmax values against incremental increases in coronary flow rate.
(§4) MIF has direct cardiodepressant effects in TNFR−/− mice to the same extent as in WT mice.

[3] = system: isolated wild type hearts; assay: Langendorff perfusion with rMIF, wild type hearts; parameters: species or system mouse; settings: WT + rMIF 20 ng/ml
Protocol: as §3, §4

CD74 KO mouse hearts = assay: Langendorff, rhMIF added to perfusate, CD74 KO mouse hearts; parameters: LVP / +dP/dt / −dP/dt / TPP / CVR: unit not given beside the values
[4] = CD74 K/O + rhMIF, single hearts by date and mean (x), n 3
[5] = CD74 K/O + rhMIF, single hearts by date and mean (x), n 3, mean
[6] = CD74 KO + rhMIF in perfusate, n = 3

B1: rMIF: recombinant human macrophage migration inhibitory factor added to the heart perfusate at 20 ng/ml (protein, UniProt P14174 2-115, looked up)
Macrophage migration …: PMFIVNTNVPRASVPDGFLSELTQQLAQATGKPPQYIAVHVVPDQLMAFGGSSEPCALCSLHSIGKIGGAQNRSYSKLLCGLLAERLRISPDRVYINYYDMNAANVGWNNSTFA
Q: Which results are given for B1?
A: +dP/dt max ([1]; n = 10): 1920 ± 89 mm Hg/see; −dP/dt max ([1]; n = 10): 1545 ± 122 mm Hg/sec; LVP ([1]; n = 10, mean peak): 77.9 ± 5.1 mm Hg; +dP/dt max ([2]; n = 7): 1800 ± 106 mm Hg/see; −dP/dt max ([2]; n = 7): 1343 ± 138 mm Hg/sec; LVP ([2]; n = 7, mean peak): 75.2 ± 5.5 mm Hg; CPP (isolated TNFR−/− hearts; TNF KO + rMIF 20 ng/ml, n = 4): 91.5 ± 6.6 mmHg; CVR (isolated TNFR−/− hearts; TNF KO + rMIF 20 ng/ml, n = 4): 61.0 ± 4.4 mmHg; DR (isolated TNFR−/− hearts; TNF KO + rMIF 20 ng/ml, n = 4): 1.30 ± 0.10; HR (isolated TNFR−/− hearts; TNF KO + rMIF 20 ng/ml, n = 4): 335 ± 20 bpm; RT90 (isolated TNFR−/− hearts; TNF KO + rMIF 20 ng/ml, n = 4): 71.3 ± 4.2 ms; TPP (isolated TNFR−/− hearts; TNF KO + rMIF 20 ng/ml, n = 4): 67.0 ± 2.4 ms; Time to Max +dP/dt (isolated TNFR−/− hearts; TNF KO + rMIF 20 ng/ml, n = 4): 47.0 ± 2.4 ms; Time to Max −dP/dt (isolated TNFR−/− hearts; TNF KO + rMIF 20 ng/ml, n = 4): 47.0 ± 2.4 ms; dP40 (isolated TNFR−/− hearts; TNF KO + rMIF 20 ng/ml, n = 4): 1613 ± 105 mmHg/sec; −dP/dt max (isolated TNFR−/− hearts; TNF KO + rMIF 20 ng/ml, n = 4): 1413 ± 151 mmHg/sec; LVP (isolated TNFR−/− hearts; TNF KO + rMIF 20 ng/ml, n = 4, mean ± SE): 66.0 ± 4.7 mmHg; +dP/dt max (isolated TNFR−/− hearts; TNFR−/− + rMIF 20 ng/ml, n = 4): 1800 ± 100 mmHg/sec; onset of cardiac dysfunction (systolic and diastolic) (isolated TNFR−/− hearts; isolated hearts (Langendorf prep), both TNFR−/− and wild type mice): ≤ 20 min; +dP/dt max ([3]; n = 5): 1400 ± 158 mmHg/sec; CPP ([3]; n = 5): 84.8 ± 8.6 mmHg; CVR ([3]; n = 5): 56.5 ± 5.7 mmHg; DR ([3]; n = 5): 1.32 ± 0.06; HR ([3]; n = 5): 338 ± 10 bpm; RT90 ([3]; n = 5): 75.2 ± 2.9 ms; TPP ([3]; n = 5): 71.6 ± 1.6 ms; Time to Max +dP/dt ([3]; n = 5): 49.2 ± 0.5 ms; Time to Max −dP/dt ([3]; n = 5): 52.4 ± 1.7 ms; dP40 ([3]; n = 5): 1240 ± 174 mmHg/sec; −dP/dt max ([3]; n = 5): 1070 ± 146 mmHg/sec; LVP ([3]; n = 5, mean ± SE): 55.6 ± 5.9 mmHg; +dP/dt (CD74 KO mouse hearts; [4]): 1800 and 1600 and 2200; CVR (CD74 KO mouse hearts; [4]): 45 and 53 and 71; DR (CD74 KO mouse hearts; [4]): 1.286 and 1.455 and 1.222; HR (CD74 KO mouse hearts; [4]): 320 and 325; LVP (CD74 KO mouse hearts; [4]): 64 and 50 and 88; Max + d (CD74 KO mouse hearts; [4]): 45 and 50 and 40; Max − d (CD74 KO mouse hearts; [4]): 53 and 52; RT90 (CD74 KO mouse hearts; [4]): 80 and 72; TPP (CD74 KO mouse hearts; [4]): 70 and 75 and 63; dP40 (CD74 KO mouse hearts; [4]): 1900; −dP/dt (CD74 KO mouse hearts; [4]): 1400 and 1100 and 1800; +dP/dt (CD74 KO mouse hearts; [5]): 1866.667; CVR (CD74 KO mouse hearts; [5]): 56.33; DR (CD74 KO mouse hearts; [5]): 1.321; HR (CD74 KO mouse hearts; [5]): 321.6667; LVP (CD74 KO mouse hearts; [5]): 67.33; Max − d (CD74 KO mouse hearts; [5]): 52.67; RT90 (CD74 KO mouse hearts; [5]): 77.33; TPP (CD74 KO mouse hearts; [5]): 69.33; dP40 (CD74 KO mouse hearts; [5]): 1666.667; −dP/dt (CD74 KO mouse hearts; [5]): 1433.333; +dP/dt max (CD74 KO mouse hearts; [6]): 1867 ± 176 mmHg/sec; Coronay Perfusion Pressue (CD74 KO mouse hearts; [6]): 86.0 ± 23.6 mmHg; Coronay Vascular Resistance (CD74 KO mouse hearts; [6]): 56.3 ± 7.7 mmHg; Heart Rate (CD74 KO mouse hearts; [6]): 322 ± 2 bpm; Left Ventricular Pressure (CD74 KO mouse hearts; [6]): 67.3 ± 14.4 mmHg; Time to 90% Relaxation (CD74 KO mouse hearts; [6]): 77.3 ± 2.7 ms; Time to Max +dP/dt (CD74 KO mouse hearts; [6]): 45.0 ± 2.9 ms; Time to Max −dP/dt (CD74 KO mouse hearts; [6]): 52.7 ± 0.3 ms; Time to Peak Pressue (CD74 KO mouse hearts; [6]): 69.3 ± 3.5 ms; dP40 (CD74 KO mouse hearts; [6]): 1662 ± 120 mmHg/sec; −dP/dt max (CD74 KO mouse hearts; [6]): 1433 ± 202 mmHg/sec
